Measurements published in IntAct's records for PubMed 16537494.

B1: Epsin-1 (Saccharomyces cerevisiae), Q12518 (parent)
chain: MSKQFVRSAKNLVKGYSSTQVLVRNATSNDNHQVSKDSLIELAEKSYDSADFFEIMDMLDKRLNDKGKYWRHIAKALTVIDYLIRFGSENCVLWCRENLYIIKTLKEFRHEDDEGIDQGQIVRVKAKELTALLSDDERLNEERNMNIKGRNRKGRRRRGTGRSDENDDDLQRAISASRLTAEEDERRRKQDEDYETALQLSKEEEELKRLQDLQRMQQQQGQQQLQQPMYYDIFGNPITPEEYAQFQLQQQQQQQQQQLQQQPMYYDVFGNPITPEELAQFQQQQQLQEQQYLASMQQQQQAMSNNPFAKSEQSSSSPKRNQLVAASSPQQLQQQKQQEPLIQNRTGNQSMTDKYSKLNELLATGTGIDTFGNVGEARIPAQHTKTGTFINSQGTGYRQVSDDPNHNPFLNSQYTGLPSTSVVPTQTGYGFGNQSQQQSQNNGSNNRGYTLIDL
partner: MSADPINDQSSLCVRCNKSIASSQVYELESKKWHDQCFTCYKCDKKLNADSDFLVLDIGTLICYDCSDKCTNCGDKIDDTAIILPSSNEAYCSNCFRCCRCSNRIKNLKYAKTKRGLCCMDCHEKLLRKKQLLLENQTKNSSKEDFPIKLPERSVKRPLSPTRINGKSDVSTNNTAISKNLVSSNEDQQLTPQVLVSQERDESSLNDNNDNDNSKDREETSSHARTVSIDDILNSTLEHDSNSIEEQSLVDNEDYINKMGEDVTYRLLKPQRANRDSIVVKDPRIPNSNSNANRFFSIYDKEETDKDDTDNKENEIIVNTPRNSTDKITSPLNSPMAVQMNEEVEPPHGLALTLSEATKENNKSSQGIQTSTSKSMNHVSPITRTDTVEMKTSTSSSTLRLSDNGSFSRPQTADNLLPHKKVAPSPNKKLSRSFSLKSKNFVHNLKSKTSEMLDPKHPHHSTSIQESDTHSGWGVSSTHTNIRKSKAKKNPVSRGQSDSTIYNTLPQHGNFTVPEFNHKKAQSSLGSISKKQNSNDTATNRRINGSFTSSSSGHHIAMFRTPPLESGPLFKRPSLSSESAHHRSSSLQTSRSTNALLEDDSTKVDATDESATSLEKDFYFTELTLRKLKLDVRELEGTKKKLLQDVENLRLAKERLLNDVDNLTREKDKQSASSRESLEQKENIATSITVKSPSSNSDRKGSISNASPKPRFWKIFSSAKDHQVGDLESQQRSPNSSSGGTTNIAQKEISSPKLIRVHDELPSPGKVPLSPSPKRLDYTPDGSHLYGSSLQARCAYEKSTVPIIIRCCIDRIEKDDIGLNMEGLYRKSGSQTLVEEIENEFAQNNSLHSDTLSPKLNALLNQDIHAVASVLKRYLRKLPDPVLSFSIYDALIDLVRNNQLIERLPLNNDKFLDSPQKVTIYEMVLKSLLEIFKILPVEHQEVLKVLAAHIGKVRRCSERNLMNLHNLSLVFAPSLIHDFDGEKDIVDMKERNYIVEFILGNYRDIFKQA

Variants of: B1
Details: with rga2_yeast RGA2, Q06407

effect of a mutation on the interaction	Variant
disrupting interaction strength	Y100R;T104D
disrupting interaction strength	T104D

Variants of: B1
Details: with rga2_yeast RGA2, Q06407
Remark: another data set of the same source

effect of a mutation on the interaction	Variant
disrupting interaction strength	Y100R
